{"source": "the DeepSol protein solubility set"}
{"test": "soluble on expression in E. coli; label from the status in PepcDB or PDB records"}
{"sequence": "MKKWFPALLFSLCVSGESSAWNNIVFYSLGDVNSYQGGNVVITQRPQFITSWRPGIATVTWNQCNGPEFADGFWAYYREYIAWVVFPKKVMTQNGYPLFIEVHNKGSWSEENTGDNDSYFFLKGYKWDERAFDAGNLCQKPGEITRLTEKFDDIIFKVALPADLPLGDYSVKIPYTSGMQRHFASYLGARFKIPYNVAKTLPRENEMLFLFKNIGGCRPSAQSLEIKHGDLSINSANNHYAAQTLSVSCDVPANIRFMLLRNTTPTYSHGKKFSVGLGHGWDSIVSVNGVDTGETTMRWYKAGTQNLTIGSRLYGESSKIQPGVLSGSATLLMILP", "soluble on expression in E. coli": "soluble"}
{"sequence": "SAALAGVFVWDEERIQEEELQRSINEMKRLEEMSNMFQSSGVQHHPPEPKAQTEGNEDSEGKEQRWEMVMDKKHFKLWRRPITGTHLYQYRVFGTYTDVTPRQFFNVQLDTEYRKKWDALVIKLEVIERDVVSGSEVLHWVTHFPYPMYSRDYVYVRRYSVDQENNMMVLVSRAVEHPSVPESPEFVRVRSYESQMVIRPHKSFDENGFDYLLTYSDNPQTVFPRYCVSWMVSSGMPDFLEKLHMATLKAKNMEIKVKDYISAKPLEMSSEAKATSQSSERKNEGSCGPARIEYA", "soluble on expression in E. coli": "soluble"}
{"sequence": "MISYQKAKLAKNLAISTASKWLFVHSSTGGSATNLSIAQYATLINGIQSAIKCQVILTAGKGERERAVELAEKLTDQNVVIYDKNDGLADFTRSLACADLFIAGSTGPLHIAGGLNIPTVGFYPSRLSATPRRWRPINQVDKHLAFCPPSGKQCEMDLTLISIEQALTSVIPFIKKMWQLSLEHHHHHH", "soluble on expression in E. coli": "not soluble"}
{"sequence": "MTVVLTLLLLLVLVGCAKPKVEQTVKLGGAVKTIGDLVVLSGNSNLPKGAVVQIVMKEIEGGKQVLEEKVKVGGDGSYSWSAKRPERAKEYELDVMFLPELQPKHVKEKYGEKGELIKKDSSGRVEYQTDGQTYVGIKMYDRILKIGDGMGGQQSMLAETLPPPPPSY", "soluble on expression in E. coli": "not soluble"}
{"sequence": "MGSDKIHHHHHHVTNKRPIAFDATPDTLRRSLVLSAAAASGLGLLPGAMRDARAQSFPPLGNFPAGTEGNSVFVGVSVPLTGAFSAEGKDQQLGFELAFEHLNSGKLAGKIPELKGKGVLGKTITFGVVDTEAKAESAIQGQTRFLRNNKAILMTGCYSSAVTVALGKLAQREKVLYMAGPAGSDDVTGKDCQRYSFRSQPSTTMASRALAPVLAERLGKGKKVAYLVPDYTFGHTQFESMARLTEPMGWKTVSKQVCPIGTADFSTYLLNIANSGADVFVNCTVGNDCSVSIKQAKNFGVMKNAALVVPTLQPFLAQQLGPEVTQDILGVMDFWWSLAESNELAKQFVDDFQAKHNYKPYWPAHIAYSQMLIWAVAVERAKTFYPPEVIKALEARVPIRTTLGDVMYRPEDHQLVRPVPVMRGKKPSEMKSKDDYYEVIKMIPGADAVTPLDQGTCKMGELT", "soluble on expression in E. coli": "not soluble"}
{"sequence": "MSNKFHCDVCSADCTNRVRVSCAICPEYDLCVPCFSQGSYTGKHRPYHDYRIIETNSYPILCPDWGADEELQLIKGAQTLGLGNWQDIADHIGSRGKEEVKEHYLKYYLESKYYPIPDITQNIHVPQDEFLEQRRHRIESFRERPLEPPRKPMASVPSCHEVQGFMPGRLEFETEFENEAEGPVKDMVFEPDDQPLDIELKFAILDIYNSRLTTRAEKKRLLFENHLMDYRKLQAIDKKRSKEAKELYNRIKPFARVMTAQDFEEFSKDILEELHCRARIQQLQEWRSNGLTTLEAGLKYERDKQARISSFEKFGASTAASLSEGNSRYRSNSAHRSNAEYSQNYSENGGRKKNMTISDIQHAPDYALLSNDEQQLCIQLKILPKPYLVLKEVMFRELLKTGGNLSKSACRELLNIDPIKANRIYDFFQSQNWM", "soluble on expression in E. coli": "soluble"}
{"sequence": "MAVEDEGLRVFQSVKIKIGEAKNLPSYPGPSKMRDCYCTVNLDQEEVFRTKIVEKSLCPFYGEDFYCEIPRSFRHLSFYIFDRDVFRRDSIIGKVAIQKEDLQKYHNRDTWFQLQHVDADSEVQGKVHLELRLSEVITDTGVVCHKLATRIVECQGLPIVNGQCDPYATVTLAGPFRSEAKKTKVKRKTNNPQFDEVFYFEVTRPCSYSKKSHFDFEEEDVDKLEIRVDLWNASNLKFGDEFLGELRIPLKVLRQSSSYEAWYFLQPRDNGSKSLKPDDLGSLRLNVVYTEDHVFSSDYYSPLRDLLLKSADVEPVSASAAHILGEVCREKQEAAVPLVRLFLHYGRVVPFISAIASAEVKRTQDPNTIFRGNSLASKCIDETMKLAGMHYLHVTLKPAIEEICQSHKPCEIDPVKLKDGENLENNMENLRQYVDRVFHAITESGVSCPTVMCDIFFSLREAAAKRFQDDPDVRYTAVSSFIFLRFFAPAILSPNLFQLTPHHTDPQTSRTLTLISKTVQTLGSLSKSKSASFKESYMATFYEFFNEQKYADAVKNFLDLISSSGRRDPKSVEQPIVLKEGFMIKRAQGRKRFGMKNFKKRWFRLTNHEFTYHKSKGDQPLYSIPIENILAVEKLEEESFKMKNMFQVIQPERALYIQANNCVEAKDWIDILTKVSQCNQKRLTVYHPSAYLSGHWLCCRAPSDSAPGCSPCTGGLPANIQLDIDGDRETERIYSLFNLYMSKLEKMQEACGSKSVYDGPEQEEYSTFVIDDPQETYKTLKQVIAGVGALEQEHAQYKRDKFKKTKYGSQEHPIGDKSFQNYIRQQSETSTHSI", "soluble on expression in E. coli": "soluble"}
{"sequence": "MGSDKIHHHHHHMNLYQTKLFTTLQKEYKNKYGVDISQFVKLTNSSINFDKFEEEQLTLKQKNVIKSIKKNNEKKIILSGGIASGKTYLACYLFLKSLIEIKKLYSSDTNNFIIGNSQRSVEVNVLGQFEKLCKLLKIPYIPRHTNNSYILIDSLRINLYGGDKASDFERFRGSNSALIFVNEATTLHKQTLEEVLKRLRCGQETIIFDTNPDHPEHYFKTDYIDNIATFKTYKFTTYDNVLLSKGFVETQEKLYKDIPSYKARVLLGEWIASTDSIFTQINITDDYVFTSPIAYLDPAFSVGGDNTALCVMERVDDKYYAFVFQDQRPANDPYIMNMVKTVIENFNVHTLYLEDRDNTKGAGGLTREYILLRSNISQYFRIVPVKPKSNKFSRITTLITPFTYKKLYITKYSSSSVFNDIYSYKGDNKTHDDALDAISAAYLMLSLGYRERSVHFGNQRFL", "soluble on expression in E. coli": "not soluble"}
{"sequence": "IGNGGAERGTRNTLDIRTVAHREADGSYRIKGEKFYSTGALFAHWVSIKALDDNGKTVMAFIERGTQGLRIVDDWSGFGQRTTASGTVLLDDVSVPAKQVVP", "soluble on expression in E. coli": "not soluble"}
{"sequence": "SNNVLPTWSLDSNGEMRSRLSLSEVLDSGDLMKFAVDKTGCQFLEKAVKGSLTSYQKFQLFEQVIGRKDDFLKLSTNIFGNYLVQSVIGISLATNDDGYTKRQEKLKNFISSQMTDMCLDKFACRVIQSSLQNMDLSLACKLVQALPRDARLIAICVDQNANHVIQKVVAVIPLKNWEFIVDFVATPEHLRQICSDKYGCRVVQTIIEKLTADSMNVDLTSAAQNLRERALQRLMTSVTNRCQELATNEYANYIIQHIVSNDDLAVYRECIIEKCLMRNLLSLSQEKFASHVVEKAFLHAPLELLAEMMDEIFDGYIPHPDTGKDALDIMMFHQFGNYVVQCMLTICCDAVSGRRQTKEGGYDHAISFQDWLKKLHSRVTKERHRLSRFSSGKKMIETLANLRSTHPIYELQ", "soluble on expression in E. coli": "soluble"}
{"sequence": "MGSDKIHHHHHHGIKNGLKEEPKINVGIKGGFNSSMYFTSRLELDGERMEDVQNNYKVGYFAAMFFRVHMKRHFIQPEIMYNIYKGEIAFNKNQNKENTLPELAKLNSTIHSLELPILYGYSFVKSRPYGMALFIGPKLEYVWKHKTSEEFEGFGYSGIKEELHPINISSVIGLGVNIANIFFDFRYEIGLTNISKSIIYKKDTDGIMSQEKGIFINRHRNVLSFSLGVIF", "soluble on expression in E. coli": "not soluble"}
{"sequence": "MPSKQDVLLLDYWDQWAEAYRINGKSINTVYRYKLFRKHLKSRFDGRKLNSIRPIEWQKFINDFAAGKDRKEKTTRKRPRERSKDIVTKMNSYVRGMVKAAINERILFSDFTFGTKTSGVRSSGKVKVLEHHHHHH", "soluble on expression in E. coli": "soluble"}
